Laboratory results taken from patent publication US20240336907A1, “NOVEL ENDO-ß-N-ACETYLGLUCOSAMINIDASE” (priority 2020, published 2024).
Residue numbers refer to the chain shown, from its start. Names and notes keep the numbering of the source.

B1: Endo-Si T190Q (protein)
chain: MNKRLLVKRTFGCVCAAAILGVAPLSHPTIVEAREELKMPNGLEQSIADVEAKIDALTYLSKNSKDEFKHSMYEIPSNREHKPVSPKQALQNAKKADAQAERLAKMTIPKKEELKALEGPLYGGYFRTWQDKTSDPTETNKVNSFGELPKEVDLAFVFHDYTKDYSLFWEELATKQVPKLNKQGTRVIRQIPWRFLSGADHSDISADKEKFPNTEAGNKALAKAIVDEYVYKYNLDGLDIDIERDSVPKVNDKEDPEALARTVEVFKEIGKLIGANGADKSRLLIMDTTYTAEENPLIKETAQYLNLLLVQVYGFSGENGNYLHHKNILDETSSMEGRWQGYSKYIRPEQYMVGFSFYEEKDFNNRWKDINEEDPSDPHIGEKIQGTRAERYAKWQPKTGGLKGGLFSYAIDRDGVAQPKQKTEHPELDKIVKSEYKVSKALKKLMMTDDQYQPIDQSDFPDKALRESIIKQVGTRRGDLERFKGTLRLDNPEIKDLTGLNKLKRVAKLELINLPKITKIDKDDLPQNLKPLTDNQKSNLEIKGTYDDSKLYKDIPAFDLVISGLSGLESLDISGHQRDTLSGIDASTLPSLKAINISDNHFDLAQGTENRHILDTILATLAKNGASTASFDKQKPKGLYPESYSTAPLHLQVGQGKINVIDDLIFGTRTNQNTLINTENDFEAYKEQTIQGKPFIAPDYLYDNFKVSYKEYSASIVDSTLAETTDKTIDTAKAETYQVTVSNKDGKTVHSVKVIVGDEKPMMVNLAQDAKIIGTDNMTQSAKVFDGQKDQFLLSWNKDSSVIFELKTPGTAKHWRFFDDGKNDSVTLSVFKGDASNFETEKDKAENWVEITKDSRKNDDKVFSSPLEVDNAKYLKVTIKKEAKYIYFNELQILGYPGVVAKKTADDLRPTEADKSDDKSDKNDTEAK
modifications: Amino acid sequence of Endo-Si T190Q
B2: Endo-Si T190Q/D241M (protein)
chain: B1 chain with D241M
modifications: Amino acid sequence of Endo-Si T190Q/D241M
B3: Endo-Si D241Q/E360Q (protein)
chain: B1 chain with Q190T, D241Q, E360Q
modifications: Amino acid sequence of Endo-Si D241Q/E360Q
B4: Endo-Si T190Q/D241Q (protein)
chain: B1 chain with D241Q
modifications: Amino acid sequence of Endo-Si T190Q/D241Q
B5: Endo-Si D241Q (protein)
chain: B1 chain with Q190T, D241Q
modifications: Amino acid sequence of Endo-Si D241Q
B6: Endo-Si D241M/E360Q (protein)
chain: B1 chain with Q190T, D241M, E360Q
modifications: Amino acid sequence of Endo-Si D241M/E360Q
B7: Endo-Si D241M/Q311L (protein)
chain: B1 chain with Q190T, D241M, Q311L
modifications: Amino acid sequence of Endo-Si D241M/Q311L
B8: Endo-Si D241Q/Q311L (protein)
chain: B1 chain with Q190T, D241Q, Q311L
modifications: Amino acid sequence of Endo-Si D241Q/Q311L
B9: Endo-Si D241M (protein)
chain: B1 chain with Q190T, D241M
modifications: Amino acid sequence of Endo-Si D241M

Test system: (Fucα1,6)GlcNAc-mAb2
Test: Transglycosylation activity with sugar chain oxazoline [N3-PEG(3)]-MSG1(9)-Ox as donor
Assay type: biochemical
Conditions: 1 h; donor [N3-PEG(3)]-MSG1(9)-Ox (8 eq.), enzyme 1.25 μg, 28° C., pH 7.5
Description: Transglycosylation activity was evaluated as follows. […] A sample was taken from each of the reaction solutions at 1, 2, 4, 6, and 24 hours after initiation of the reaction and analyzed for protein by a fully automated electrophoresis system as mentioned above. In the chromatogram obtained, an unreacted product and transglycosylated molecule, mAb2-(MSG1-N3)2 were confirmed as discrete peaks. The transglycosylation rate was calculated based on the peak-area ratio between the unreacted product and the transglycosylated molecule in accordance with the following expression.
Transglycosylation rate (%)=[[peak area of mAb2-(MSG1-N3)2-derived H chain]/{[peak area of (Fucα1,6)GlcNAc-mAb2-derived H chain]+[peak area of mAb2-(MSG1-N3)2-derived H chain]}]×100
Similarly, the transglycosylation rates of individual Endo-Si mutant enzymes at each time period for a reaction were calculated (Table 5).

First: B1
Second: B2
The Transglycosylation rate of the first is higher: 97.2% for the first, 43.5% for the second.

Going from B3 to B4, the Transglycosylation rate falls from 73.5% to 26.6%.

First: B5
Second: B6
The Transglycosylation rate of the first is lower: 75.2% for the first, 99.1% for the second.

Compared with B7, B8 is lower in Transglycosylation rate: 31.8% for the first, 5.7% for the second.

B9 showed a Transglycosylation rate of 98.8%.

Same assay, conditions: 2 h; donor [N3-PEG(3)]-MSG1(9)-Ox (8 eq.), enzyme 1.25 μg, 28° C., pH 7.5

First: B1
Second: B2
The Transglycosylation rate of the first is higher: 91.8% for the first, 64.1% for the second.

Going from B3 to B4, the Transglycosylation rate falls from 96.8% to 48.4%.

First: B5
Second: B6
The Transglycosylation rate of the first is lower: 97.0% for the first, 99.0% for the second.

First: B7
Second: B8
The Transglycosylation rate of the first is higher: 59.1% for the first, 11.6% for the second.

For B9, the Transglycosylation rate was 98.9%.

Same assay, conditions: 4 h; donor [N3-PEG(3)]-MSG1(9)-Ox (8 eq.), enzyme 1.25 μg, 28° C., pH 7.5

Going from B1 to B2, the Transglycosylation rate rises from 81.8% to 92.7%.

First: B3
Second: B4
The Transglycosylation rate of the first is higher: 99.0% for the first, 83.3% for the second.

Compared with B5, B6 is lower in Transglycosylation rate: 99.1% for the first, 96.2% for the second.

Going from B7 to B8, the Transglycosylation rate falls from 95.9% to 27.4%.

Molecule B9 has a Transglycosylation rate of 97.4%.

Same assay, conditions: 6 h; donor [N3-PEG(3)]-MSG1(9)-Ox (8 eq.), enzyme 1.25 μg, 28° C., pH 7.5

Compared with B1, B2 is higher in Transglycosylation rate: 76.7% for the first, 98.7% for the second.

Compared with B3, B4 is lower in Transglycosylation rate: 99.6% for the first, 96.1% for the second.

Going from B5 to B6, the Transglycosylation rate falls from 99.6% to 95.5%.

Going from B7 to B8, the Transglycosylation rate falls from 99.5% to 44.4%.

Work on B9 yielded a Transglycosylation rate of 97.5%.

Same assay, conditions: 24 h; donor [N3-PEG(3)]-MSG1(9)-Ox (8 eq.), enzyme 1.25 μg, 28° C., pH 7.5

First: B1
Second: B2
The Transglycosylation rate of the first is lower: 32.6% for the first, 99.6% for the second.

First: B3
Second: B4
The Transglycosylation rate of the first is lower: 98.9% for the first, 99.6% for the second.

First: B5
Second: B6
The Transglycosylation rate of the first is higher: 98.8% for the first, 75.9% for the second.

First: B7
Second: B8
The Transglycosylation rate of the first is higher: 99.9% for the first, 99.3% for the second.

B9 gave a Transglycosylation rate of 75.0%.

Test system: (Fucα1,6)GlcNAc-mAb2
Test: Transglycosylation activity with SGP as donor, in combination with Endo-M N175Q
Assay type: biochemical
Conditions: 2 h; donor SGP (50 eq.), Endo-M N175Q 2.5 mU, Endo-Si enzyme 10 μg, 23° C., pH 7.5
Description: Transglycosylation activity was evaluated as follows. A 50 mM (sodium) phosphate buffer (pH 7.5) solution (17 μL) containing (Fucα1,6)GlcNAc-mAb2 (0.5 mg), SGP (0.485 mg (50 eq.)), Endo-M N175Q (manufactured by Tokyo Kasei Kogyo Co., Ltd.) (2.5 mU) and each of various Endo-Si mutant enzymes (10 μg), was prepared and incubated at 23° C. A sample was taken from each of the reaction solutions at 2, 4, 6, 24, and 48 hours after initiation of the reaction and analyzed for protein by a fully automated electrophoresis system as mentioned above. In the chromatogram obtained, an unreacted product and a transglycosylated molecule, mAb2-(SG)2 are confirmed as discrete peaks. The transglycosylation rates were obtained based on the peak area ratio between the unreacted product and the transglycosylated molecule in accordance with the following expression.
Similarly, transglycosylation rates of individual Endo-Si mutant enzymes at each time period of a reaction were calculated (Table 6).

First: B1
Second: B2
The Transglycosylation rate of the first is higher: 13.3% for the first, 3.1% for the second.

Going from B3 to B4, the Transglycosylation rate falls from 8.9% to 4.9%.

Compared with B5, B6 is lower in Transglycosylation rate: 15.9% for the first, 11.9% for the second.

Compared with B7, B8 is lower in Transglycosylation rate: 6.4% for the first, 2.6% for the second.

Molecule B9 has a Transglycosylation rate of 12.8%.

Same assay, conditions: 4 h; donor SGP (50 eq.), Endo-M N175Q 2.5 mU, Endo-Si enzyme 10 μg, 23° C., pH 7.5

First: B1
Second: B2
The Transglycosylation rate of the first is higher: 27.8% for the first, 6.4% for the second.

Compared with B3, B4 is lower in Transglycosylation rate: 20.0% for the first, 10.6% for the second.

Going from B5 to B6, the Transglycosylation rate falls from 35.6% to 27.7%.

Compared with B7, B8 is lower in Transglycosylation rate: 13.7% for the first, 5.6% for the second.

Work on B9 yielded a Transglycosylation rate of 27.9%.

Same assay, conditions: 6 h; donor SGP (50 eq.), Endo-M N175Q 2.5 mU, Endo-Si enzyme 10 μg, 23° C., pH 7.5

Compared with B1, B2 is lower in Transglycosylation rate: 43.2% for the first, 13.8% for the second.

Going from B3 to B4, the Transglycosylation rate falls from 30.3% to 21.4%.

First: B5
Second: B6
The Transglycosylation rate of the first is higher: 52.3% for the first, 42.7% for the second.

Compared with B7, B8 is lower in Transglycosylation rate: 24.1% for the first, 8.2% for the second.

B9 was tested, and the Transglycosylation rate was 40.5%.

Same assay, conditions: 24 h; donor SGP (50 eq.), Endo-M N175Q 2.5 mU, Endo-Si enzyme 10 μg, 23° C., pH 7.5

Going from B1 to B2, the Transglycosylation rate falls from 93.8% to 50.7%.

Compared with B3, B4 is lower in Transglycosylation rate: 94.4% for the first, 71.5% for the second.

Going from B5 to B6, the Transglycosylation rate falls from 98.1% to 98.0%.

First: B7
Second: B8
The Transglycosylation rate of the first is higher: 79.7% for the first, 48.6% for the second.

With B9 the Transglycosylation rate was 96.5%.

Same assay, conditions: 48 h; donor SGP (50 eq.), Endo-M N175Q 2.5 mU, Endo-Si enzyme 10 μg, 23° C., pH 7.5

Compared with B1, B2 is lower in Transglycosylation rate: 93.3% for the first, 77.5% for the second.

First: B3
Second: B4
The Transglycosylation rate of the first is higher: 98.5% for the first, 92.5% for the second.

Compared with B5, B6 is higher in Transglycosylation rate: 98.5% for the first, 98.7% for the second.

First: B7
Second: B8
The Transglycosylation rate of the first is higher: 97.0% for the first, 76.3% for the second.

In the case of B9, the Transglycosylation rate is reported as 96.8%.
